In data set [1] the target is T1, YbiB Arg123Glu (Escherichia coli BW25113, UniProt P30177 1-320, R123E).
T1 sequence: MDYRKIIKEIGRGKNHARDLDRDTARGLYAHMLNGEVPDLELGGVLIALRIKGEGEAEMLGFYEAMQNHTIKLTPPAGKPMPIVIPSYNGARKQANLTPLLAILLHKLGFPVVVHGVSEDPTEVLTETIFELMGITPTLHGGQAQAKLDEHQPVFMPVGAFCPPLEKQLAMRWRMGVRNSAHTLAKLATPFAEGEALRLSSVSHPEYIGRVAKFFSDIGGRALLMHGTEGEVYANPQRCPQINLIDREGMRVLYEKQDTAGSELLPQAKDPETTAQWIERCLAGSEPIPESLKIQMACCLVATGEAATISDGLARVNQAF
Description: EMSA; EMSA: 20 mM HEPES pH 7.5, 150 mM NaCl, 5 mM MgCl2, 2 mM DTT, 5% glycerol, 30 min at 37 C; 6% PAGE in 1x TBE at room temperature. The conditions noted are these: protein: recombinant; tags: N-terminal His6, thrombin site (pET28a); chain copies: 2; label: 5'-32P; single strand. On the technique in general: Mobility shift assays separate free from complexed probe on a gel.

For data set [2], the target named is T2, YbiB Arg92Glu (Escherichia coli BW25113, UniProt P30177 1-320, R92E).
T2 sequence: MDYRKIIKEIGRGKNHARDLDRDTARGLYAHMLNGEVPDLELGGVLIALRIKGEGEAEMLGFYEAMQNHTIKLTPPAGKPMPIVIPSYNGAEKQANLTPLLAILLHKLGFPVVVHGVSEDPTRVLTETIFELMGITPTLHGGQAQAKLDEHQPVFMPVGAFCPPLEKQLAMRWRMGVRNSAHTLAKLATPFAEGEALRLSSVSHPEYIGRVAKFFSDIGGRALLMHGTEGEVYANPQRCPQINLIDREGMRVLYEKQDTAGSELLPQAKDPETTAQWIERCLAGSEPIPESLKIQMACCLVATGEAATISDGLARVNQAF
The data set is described as above. The conditions noted are these: protein: recombinant; tags: N-terminal His6, thrombin site (pET28a); chain copies: 2; label: 5'-32P; single strand.

B1: EMSA_probe (58-nt ssDNA) (ssDNA)
DNA: GCTTTTGATGTACCAATGCATCACCATCACCATCAGGAAATGGGTAAGATGCTTGTAG
For B1, the binding signal in data set [1] and in data set [2] was > 10 fold higher apparent KD than WT each time.

For the origin of these results see PMC10123104, “YbiB: a novel interactor of the GTPase ObgE”.
